Test results as given in patent US20220280636A1 (Merck Sharp & Dohme, published 2022).

Legend:
gI-2t 262 = target: T1, gI-2t 262 (HSV-2, UniProt P06764 21-262); assay: SEC-MALS of the gE-2t 417 / gI-2t 262 heterodimer complex
T1 construct: Partner of gE-2t 417 in the SEC-MALS analysis of complex formation; also called soluble gI-2; not shown: glycine linker and thrombin-cleavable 6-Histidine tag

[1] = target: T2, guinea pig whole molecule IgG (guinea pig); assay: SPR; IgG amine coupled to CM5 chip, construct flowed at 750 ug/ml; end-point RU of association phase
T2 construct: Immobilised partner in SPR; also called Guinea Pig IgG

mouse whole molecule IgG = target: T3, mouse whole molecule IgG (mouse); assay: as above
T3 construct: Immobilised partner in SPR; also called Mouse IgG

[2] = target: T4, rabbit whole molecule IgG (rabbit); assay: as above
T4 construct: Immobilised partner in SPR; also called Rabbit IgG; Rabbit IgG Whole Molecule

human whole molecule IgG = target: T5, human whole molecule IgG (human); assay: as above
T5 construct: Immobilised partner in SPR; also called Human IgG; Human IgG Whole Molecule

human IgG Fc = target: T6, human IgG Fc (human); assay: as above
T6 construct: domain: Fc; Immobilised partner in SPR; also called human IgG Fc domain

B1: gE-2t 417 (other)
chain: AAPRTSWKRVTSGEDVVLLPAPAGPEERTRAHKLLWAAEPLDACGPLRPSWVALWPPRRVLETVVDAACMRAPEPLAIAYSPPFPAGDEGLYSELAWRDRVAVVNESLVIYGALETDSGLYTLSVVGLSDEARQVASVVLVVEPAPVPTPTPDDYDEEDDAGVSERTPVSVPPPTPPRRPPVAPPTHPRVIPEVSHVRGVTVHMETPEAILFAPGETFGTNVSIHAIAHDDGPYAMDVVWMRFDVPSSCAEMRIYEACLYHPQLPECLSPADAPCAVSSWAYRLAVRSYAGCSRTTPPPRCFAEARMEPVPGLAWLASTVNLEFQHASPQHAGLYLCVVYVDDHIHAWGHMTISTAAQYRNAVVEQHLPQRQPEPVEPTRPHVRAPPPAPSARGPLR
notes: Monomer, mammalian expression; also called gE-2t 417 WT; gE-2t 417 wild type; not shown: glycine linker and thrombin-cleavable 6-Histidine tag
**Q.** Does B1 bind (gI-2t 262)?
**A.** binds

**Q.** What about the “RU Post Association” value [1] of the same binder?
**A.** 5 RU

**Q.** And the “RU Post Association” value (mouse whole molecule IgG)?
**A.** 10 RU

**Q.** What about the “RU Post Association” value [2] of the same binder?
**A.** 11 RU

**Q.** What about the “RU Post Association” value (human whole molecule IgG) of the same binder?
**A.** 4 RU

**Q.** What about the “RU Post Association” value (human IgG Fc) of the same binder?
**A.** 5 RU
